According to article PMC7069074:

Target: T1, ERα (purified) (UniProt P03372)
T1 sequence: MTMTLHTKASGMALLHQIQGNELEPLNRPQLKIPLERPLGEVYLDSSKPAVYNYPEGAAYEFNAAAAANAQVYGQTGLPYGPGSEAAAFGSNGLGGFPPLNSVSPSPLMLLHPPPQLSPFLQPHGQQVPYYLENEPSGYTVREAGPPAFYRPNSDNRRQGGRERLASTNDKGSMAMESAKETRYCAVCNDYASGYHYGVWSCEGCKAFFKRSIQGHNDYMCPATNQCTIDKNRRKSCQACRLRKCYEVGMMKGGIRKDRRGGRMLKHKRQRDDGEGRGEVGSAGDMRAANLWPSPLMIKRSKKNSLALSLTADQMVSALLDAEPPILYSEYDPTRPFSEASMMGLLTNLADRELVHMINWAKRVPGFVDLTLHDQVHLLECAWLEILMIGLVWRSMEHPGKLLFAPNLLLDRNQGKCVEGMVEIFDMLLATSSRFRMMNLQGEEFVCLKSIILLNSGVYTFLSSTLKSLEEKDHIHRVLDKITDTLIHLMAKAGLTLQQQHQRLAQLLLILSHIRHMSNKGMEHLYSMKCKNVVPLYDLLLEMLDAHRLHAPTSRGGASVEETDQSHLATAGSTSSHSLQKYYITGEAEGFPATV
Test: EMSA (1% agarose, ethidium bromide)
Conditions: EMSA: 0.1 M KCl, 1 mM DTT, 1 mM MgCl2, 10 mM HEPES pH 7.6, 37 °C, 30 min; pull-down: lysate in 5 mM PIPES, 85 mM KCl, 0.5% NP-40, 2 mM PMSF, 4 °C overnight …

AACGGAGTGTAGTCGGCTGACCCCTAGCATAGAGCAGTGCTGTTGGCTACTAACCACACCTCTCTACCTCTTTCTTACTCTAATATTACCCACCACAACAGCCAGAAAGTTCTTTTGAGAACATCTATCTGATCATGACACTGTCTTACTTAAAATCTTCCAGTGACTACTATTACCCTTAGGGTAGTCCAGATTCCATAATGTGGTTTACTGGACTCTATGACTTCTAAGAGAAGTCTTAGAGT (double strand) [YB-1 promoter]
binding: binds
